Results: patent EP3757216B1

B1: FcγRIIa-m11 (receptor)
chain: MGQAAAPPKAVLKLEPPWTNVLQEDSVTLTCQGARSPESDSVLWFHNGNLIPTQTQLTYRFKATSNDSGEYTCQTGQTSLSDPVHLTVLSEWLVLQPPRLEFQEGETIMLRCHSWKDKPLVKVTFFQNGKSQKFSHLDPTFSIPQANHSHSGDYHCTGNIGYTSFSSKPVTITVQGGHHHHHH
B2: FcγRIIa-m10C (receptor)
chain: MGQAAAPPKAVLKLEPPWINVLQEDSVTLTCQGARSPESDSVLWFHNGNLIPTQTQLTYRFKATSNDSGEYTCQTGQTSLSDPVHLTVLSEWLVLQPPRLEFQEGETIMLRCHSWKDKPLVKVTFFQNGKSQKFSHLDPTFSIPQANHSHSGDYHCTGNIGYTSFSSKPVTITVQGGHHHHHH
B3: FcγRIIa-m10B (receptor)
chain: MGQAAAPPKAVLKLEPPWTNVLQEDSVTLTCQGARSPESDSVQWFHNGNLIPTQTQLTYRFKATSNDSGEYTCQTGQTSLSDPVHLTVLSEWLVLQPPRLEFQEGETIMLRCHSWKDKPLVKVTFFQNGKSQKFSHLDPTFSIPQANHSHSGDYHCTGNIGYTSFSSKPVTITVQGGHHHHHH
B4: FcγRIIa-m10A (receptor)
chain: MGQAAAPPKAVLKLEPPWTNVLQEDSVTLTCQGARSPESDSVLWFHNGNLIPTQTQPTYRFKATSNDSGEYTCQTGQTSLSDPVHLTVLSEWLVLQPPRLEFQEGETIMLRCHSWKDKPLVKVTFFQNGKSQKFSHLDPTFSIPQANHSHSGDYHCTGNIGYTSFSSKPVTITVQGGHHHHHH
B5: FcγRIIa-m11-Del3 (receptor)
chain: MGQAAAPPKAVLKLEPPWTNVLQEDSVTLTCQGARSDSVLWFHNGNLIPTQTQLTYRFKATSNDSGEYTCQTGQTSLSDPVHLTVLSEWLVLQPPRLEFQEGETIMLRCHSWKDKPLVKVTFFQNGKSQKFSHLDPTFSIPQANHSHSGDYHCTGNIGYTSFSSKPVTITVQGGHHHHHH
B6: FcγRIIa-m11-Del7 (receptor)
chain: MGQAAAPPKAVLKLEPPWTNVLQEDSVTLTCQDSVLWFHNGNLIPTQTQLTYRFKATSNDSGEYTCQTGQTSLSDPVHLTVLSEWLVLQPPRLEFQEGETIMLRCHSWKDKPLVKVTFFQNGKSQKFSHLDPTFSIPQANHSHSGDYHCTGNIGYTSFSSKPVTITVQGGHHHHHH
B7: FcγRIIa-m11-Del2 (receptor)
chain: MGQAAAPPKAVLKLEPPWTNVLQEDSVTLTCQGARPSDSVLWFHNGNLIPTQTQLTYRFKATSNDSGEYTCQTGQTSLSDPVHLTVLSEWLVLQPPRLEFQEGETIMLRCHSWKDKPLVKVTFFQNGKSQKFSHLDPTFSIPQANHSHSGDYHCTGNIGYTSFSSKPVTITVQGGHHHHHH
B8: FcγRIIa-m11-Del1 (receptor)
chain: MGQAAAPPKAVLKLEPPWTNVLQEDSVTLTCQGARPESDSVLWFHNGNLIPTQTQLTYRFKATSNDSGEYTCQTGQTSLSDPVHLTVLSEWLVLQPPRLEFQEGETIMLRCHSWKDKPLVKVTFFQNGKSQKFSHLDPTFSIPQANHSHSGDYHCTGNIGYTSFSSKPVTITVQGGHHHHHH
B9: FcγRIIa-m11-Del5 (receptor)
chain: MGQAAAPPKAVLKLEPPWTNVLQEDSVTLTCQGADSVLWFHNGNLIPTQTQLTYRFKATSNDSGEYTCQTGQTSLSDPVHLTVLSEWLVLQPPRLEFQEGETIMLRCHSWKDKPLVKVTFFQNGKSQKFSHLDPTFSIPQANHSHSGDYHCTGNIGYTSFSSKPVTITVQGGHHHHHH
B10: FcγRIIa-m11-Del6 (receptor)
chain: MGQAAAPPKAVLKLEPPWTNVLQEDSVTLTCQGDSVLWFHNGNLIPTQTQLTYRFKATSNDSGEYTCQTGQTSLSDPVHLTVLSEWLVLQPPRLEFQEGETIMLRCHSWKDKPLVKVTFFQNGKSQKFSHLDPTFSIPQANHSHSGDYHCTGNIGYTSFSSKPVTITVQGGHHHHHH
B11: FcγRIIa-m11-Del4 (receptor)
chain: MGQAAAPPKAVLKLEPPWTNVLQEDSVTLTCQGASDSVLWFHNGNLIPTQTQLTYRFKATSNDSGEYTCQTGQTSLSDPVHLTVLSEWLVLQPPRLEFQEGETIMLRCHSWKDKPLVKVTFFQNGKSQKFSHLDPTFSIPQANHSHSGDYHCTGNIGYTSFSSKPVTITVQGGHHHHHH

The binders below were run against gamma-globulin preparation (The Chemo-Sero-Therapeutic Research Institute), a human antibody (human) (assay: ELISA on immobilised human gamma-globulin, anti-6His detection; antibody binding activity after acid treatment (pH 3.0, 24 h, 30 C) divided by that without treatment).
An RESIDUAL ACTIVITY [%] of 95.3% was found for B1 in this work.
An RESIDUAL ACTIVITY [%] of 72.9% was found for B2 in this work.
An RESIDUAL ACTIVITY [%] of 46.9% was found for B3 in this work.
An RESIDUAL ACTIVITY [%] of 77.3% was found for B4 in this work.

Each binder was assayed against gamma-globulin preparation (The Chemo-Sero-Therapeutic Research Institute), a human antibody (human) (assay: ELISA on immobilised human gamma-globulin, anti-6His detection; antibody binding activity after acid treatment (pH 3.0, 72 h, 30 C) divided by that without treatment).
An RESIDUAL ACTIVITY [%] of 72.4% was found for B5 in this work.
An RESIDUAL ACTIVITY [%] of 33.3% was found for B6 in this work.
An RESIDUAL ACTIVITY [%] of 81.3% was found for B7 in this work.
An RESIDUAL ACTIVITY [%] of 89.8% was found for B8 in this work.
An RESIDUAL ACTIVITY [%] of 83.6% was found for B1 in this work.
An RESIDUAL ACTIVITY [%] of 86.5% was found for B9 in this work.
An RESIDUAL ACTIVITY [%] of 25.4% was found for B10 in this work.
An RESIDUAL ACTIVITY [%] of 76.7% was found for B11 in this work.
